Results reported in patent publication US20240245805A1 (Orna Therapeutics, Inc., priority 2020, published 2024).

B1: Porcine Kobuvirus GS2 (nucleic acid, listed as Kobuvirus sp.)
DNA: TTTGAAAAGGGGGTGGGGGGGCCTCGGCCCCCTCACCCTCTTTTCCGGTGGCCATTCGCCCGGGCCACCGTTACTCCACTCCACTCCTTCGGGACTGGTTTGGAGGAACACAACAGGGCTTCCCATCCCTGTTTACCCTTTATTCCATCATCCTTTCCCCAAGTTTACCCTATCCACACCCCACTGACTGACTCCTTTGGATTTTGACCTCAGAATGCCTATTTGACCTCCCACTCGCCTCTCCCTTTTCGGATTGCCGGTGGTGCCTGGCGGAAAAAGCACAAGTGTGTTGCAGGCTACCAAACTCCTACCCGACAAAGGTGCGTGTCCGCGTGCTGAGTAATGGGATAGGAGATGCCTACAACAGGCTCGCCCATGAGTAGAGCATGGACTGCGGTGCATGTGACTTCGGTCACCACGGGCATAGCATTGCTCACCCGTGAATCAAGTCATCGAGATTTCTCTGACCTCTGAAGTGCACTGTGGTTGCGTGGCTGGGAATCCACGCTTGACCATGTACTGCTTGATAGAGTCGCGGCTGGCCGACTCATGGGTTAAAGTCAGTTGACAAGACAC
modifications: lipid formulation
B2: Symapivirus A (nucleic acid)
DNA: TTGGGAAATCCCCAATGCTTCTTTCAACACCGCCTGACTATGCGGTGGCGCTTCGGCTCAAACAACTAGTCACTTCCCCCTCTTAACTACTACCCAAGACTTCTAACTACCCTTACCTACTTATTTGTCTAAATTTCAAACTTTTATTCTCACGCGTCTTATAAACATCTTTTCTATTTGTTATGGTATGTTTTGTGATTTGTGTGGTGTATTTCATTTAATGGGATCTAGTGGACCGTGCCCCGGTTGGGTATCCGCTCCCTTTAAATGTTTGCAAGCACTCTTGACATTATAACCTATCATTTAGTTTACTTGTTTGTATGATCGTATTTCTGAATCGTAACATTTATGCAATTCTTTCTCGCCGAGACTTGTCTAGGAGATAAAGTTCCTGCATATTTAGTGTTACGGTTGTATAATGGAGACTTAGATAGCTTCACACTGAGGACGCTTTTTCGCTATCCTTTTGACCTGATTCAGGCCAGTGTGGAGTTAATGATTGTATGGATGGGCCCTACAATTTGTCTAAGACTTGGTGATAGCCTCGCGGCCGCTCGCCATTTATACAACTGAATAGCGGTTGAAACTCTCT
modifications: Symapivirus A
B3: Human pegivirus isolate JD2B1I (nucleic acid, listed as Pegivirus sp.)
DNA: TCAGGGTTGGTAGGTCGTAAATCCCGGTCACCTTGGTAGCCACTATAGGTGGGTCTTAAGAGAAGGTTAAGATTCCTCTTGTGCCTGCGGCGAGACCGCGCACGGTCCACAGGTGTTGGCCCTACCGGTGGGAATAAGGGCCCGACGTCAGGCTCGTCGTTAAACCGAGCCCGTCACCCACCTGGGCAAACGACGCCCACGTACGGTCCACGTCGCCCTTCA
B4: Tropivirus A (nucleic acid)
DNA: TGTCGCATGTTGCCAACATCAAAATTCTGGGAGAGTCGCGAACTCCTTAACACTGCCTTGCCTCGACGGAGCCGTTGTTATAGTGTCGACGGGATACAAACATTAAACTAAACCCACTTGCCTCGACGGAACCCCTTACCTTTTATTTTATTTTATAGTATGAAAGTGAATCTTGTATGAATGTTCATAGAAAACTGCAAATGAGTACCACGTCTAACATGAGAGAATGATACTGGAGAAATCCAAGTTTAGAAGTCACTACGAATCCCAGCGGAAACAAGGGAATTCTGAGCTTCTAATAGGCGTTTAAGACTATTTGCAAAATTCTGGTGCGTAAGTGATATTTTCATTGCGTAGAACGCTGGTAACCACTCCGGCTAGTATAAGCATTGTTAGTCACTTATTATGAAACTCCACACTATCCTTTCTGGAGAAGCACACAAACTTACATGGTAAAGCTAGACCATTATCTTAAGCGGTGAGTACACTGCAACCTTGTAACAATGCTTGTATGACTACTTTTTGTATATCTTGAGCAATATTGTTGAGGTGGACATGTCCAAAGGTAATGTTGTTGGGAATGGAGGGGTCCATTTTCCCGTGCACGTAGTGTACTAGTATTGGGTGATAGCCTTGCGGCGGATCAACCATGTATTTTAATCCGTTGACTTTCAC
modifications: Tropivirus A
B5: Simian pegivirus (nucleic acid, listed as Pegivirus sp.)
DNA: GGGGAATCTCACCCCCCGTCCGGTTCCGGAAGAATCGGAAACCGACACCCTGACCAATCATTCTTGATCATAGAGTGGATGTTAGTGAAAGCCAGACGAAAGCCGGCGGATGGGTGGTGACAGGGTTGGTAGGTCGTAAATCCCGGCCACCCTGGTACCCGGTATAAGTTGGGCGGAAGCTGACTGAAGCTCCGTGCTCTTTTCTGTGCGTTCTTGGTGCACGGTCCACAGGTGACGCCTATACCGGTGTGAATAATAGGCCGACTCGAGCGGAGTCGTTAAACTGAGAACCTCCATACGGATGGCAACTTGGCTTGCGTACGGGGACGCCGCTAAAGTCACAGTGGGTTAAGTCCGGCGGGTTGACAACCCCAGCAAGGCGAGGGGGTCCTATTGTTGGACTCTGCCAGTTCCCGGTGGAGGTAGGCATGGGGTGGCCCAGCTCCGCGGCGCGCTACAGCCGGGGTAGCCCAAAATCCGAAAGGTGAGGGCGGGCCACATGTCCGAAATTTAGTCAAGC
modifications: lipid formulation
B6: Aichivirus Rt386 (nucleic acid, listed as Aichivirus sp.)
DNA: ACTCCATTCAGCTTCTTCGGAACCTGTTCGGAGGAATTAAACGGGCACCCACTTTCCTGTCCTCTCCCCCTTTCTGCAACTCAAGTGTGTGCTCGTAATCCTGACTCCCACGGGTTGACCGCCCCGTTGGTGAACAAACAGCTAGGTCATTCCCTCCCTACCCCTGGGCGCCATTTCAGTGGCGTTCATATCCTCCCCCCAGCCTGACGTGTCACAGGCTGTGCAAAGTCCCCGCGAAAGCTGCTCACGTGGCAATTGTGGGTCCCCCCTTTGTGAAGGAACCGAGTCTTTCTCCCTTAAGGCTAGACCCCTGTGTGAACTCACAGGTGGCAACTAGTGGTTCCACTGCATGCTCCCGACCTCGGCCGCGGAGTGCTGTTCCCCAAGTCGTGACACTGACCTCCACTTATGTGCCTGGCAAGCATATCTGAGAAGATGTTCCGCTGTGGCTGCCAAACCTGGTAACAGGTGCCCCAGTGCGTGTAGTCTTCTTCCGTCTCCGGACGGTAAGTGTGTGGTAAAGATGCGGCGTAAGGTTCAAGTGCCAACGCCCTGGAAGGGATGACCCTTCTACTGCCCTAGGAATGCCGCGCAGGTACCCCAGGTTCGCCTGGGATCTGAGCGCGGGCTAATTGTCTACGGGTAGTTTCATTTCCCTCTCTTTTCACTGGCATC
B7: A73-675 (nucleic acid)
DNA: TTACTCCATTCAGCTTCTTCGGAACCTGTTCGGAGGAATTAAACGGGCACCCATACTCCCCCCACCCCCCTTTTGTAACTAAGTATGTGTGCTCGTGATCTTGACTCCCACGGAACGGACCGATCCGTTGGTGAACAAACAGCTAGGTCCACATCCTCCCTTCCCCTGGGAGGGCCCCCGCCCTCCCACATCCTCCCCCCAGCCTGACGTATCACAGGCTGTGTGAAGCCCCCGCGAAAGCTGCTCACGTGGCAATTGTGGGTCCCCCCTTCATCAAGACACCAGGTCTTTCCTCCTTAAGGCTAGCCCCGGCGTGTGAATTCACGTTGGGCAACTAGTGGTGTCACTGTGCGCTCCCAATCTCGGCCGCGGAGTGCTGTTCCCCAAGCCAAACCCCTGGCCCTTCACTATGTGCCTGGCAAGCATATCTGAGAAGGTGTTCCGCTGTGGCTGCCAACCTGGTGACAGGTGCCCCAGTGTGCGTAACCTTCTTCCGTCTCCGGACGGTAGTGATTGGTTAAGATTTGGTGTAAGGTTCATGTGCCAACGCCCTGTGCGGGATGAAACCTCTACTGCCCTAGGAATGCCAGGCAGGTACCCCACCTCCGGGTGGGATCTGAGCCTGGGCTAATTGTCTACGGGTAGTTTCATTTCCAATCCTTTTATGTCGGAGTC
modifications: source: /note="Description of Unknown: A73-675 sequence"
B8: Pegivirus K (nucleic acid)
DNA: AGAATGGTGTGATCCGTCGCCGCTCCAGCGGAAAGCGGGCGGGATCTAGTGGTTAGGGTTGTTCGCGTAAATCCCACACTAGTGGTACGCTCGTATAACGTGGGAGCAGCCGGTGGGGTCGACCCCCCACCTGGCGGCTGCTGAGCACCGGACGAAGCGCGGGGGGTGAACGCTAACCCGCGGCCCGGGCTGCCAACGTTAGGCACGTCTTGGCTGGAAGACGTTAAACACAGGGCCCCCCCTCAACCCTGATCCGAGGCCAGAGACCAAGGTACGCCGCCCTTTTAAAGGCGTTACTCGTCCAATAGGATCTCTCCGGCGGGTTGTCAAACCTTGCTGGCCCTGGTGATGGTTACGGGAGGGGGTGGGGCGGGGAGTAGAAGCCCCGCCCGGCATGGGGGTACCAAGCTCGGCACGCCCAGCACGCGTGGCGTAGGGGAAAAATCCTTCGGGTGACCCCTGGTACCATAAAGTAATTAACATGAGCATGCCGCTAGGGTGTGCTTTTTCTTCCTTCCTTGGGAAGGCGGTGGCACC
modifications: lipid formulation; Pegivirus K
B9: Pegivirus I (nucleic acid)
DNA: AGAATGGTCTAAGTGGTTGCCACCGTGGTCCGAAGGGGAGGAGGACCTACGCTGCCAGGGTTGGCAGGTCGTAAATCCCGGGTGTAGGAGATCCCTCCTTGTTAGGACTGCTGGTAGCTGGGGGGTCGGTGACCCCCTGGGCAACCGCCAAACCCGGACGACCGGGTGGCGGCTCCATGTTGGCACGGTCCACAGGTGTGAACCCTACCGGTGTGAATAAGGGTTGGTGGTTGCGGTCCACCTTAAACGTAGTATGCATTGGGCTTGGTAAAACACCGCTCGTAGTACGGAACGCCGCCTTTAAAGACACAGTAGGCGTAGCCGGCGGGTTGACAATCCATACGGGGGGTGGGGTGTGGTCATGGATCTGTCCACACCACCTTCATGCGGCCCTCTAAGCAAGCCATACCGGGGGGAGGCGCGCGGCACCGCACTGCCGGGCAAGGGGAAGAACCTTCGGGTGACCCCCCCCCAACCACCGTCCGATCAATGCTAATGTTGCGTTTAGGCGTGACACCGGCACA
modifications: lipid formulation; Pegivirus I

The molecules below were run on HEK293 cells. Conditions: circular RNA encoding Gluc with the listed IRES (UTR truncated to 675 nt) transfected into HEK293 cells; supernatant after 24 hours.
Type: cell-based, human

Point of comparison: B7, “Expression (luminescence from secreted Gluc protein)” value 1.30E+08. Against it:
- B1 — lower, 44200000
- B2 — lower, 1.27E+05
- B3 — lower, 6.85E+05
- B4 — lower, 9.52E+04
- B5 — lower, 8.56E+04
- B6 — lower, 5.71E+07
- B8 — lower, 8.07E+04
- B9 — lower, 8.02E+04
